Measured values reported in patent publication US20110243928A1 (published 2011).

Tests used:
[1] = biological target: T1, native (PBMC derived) human IL-13 (human, UniProt P35225 35-146, limits assumed); test: ELISA on Th2 cell supernatant read against a standard curve
T1 construct: IL-13 in supernatant of stimulated human CD4+ Th2 cells; also called native human IL-13; Native IL-13

[2] = biological target: E. coli-expressed recombinant human GM-CSF (human, UniProt P04141 18-144); test: sandwich ELISA
Sequence of E. coli-expressed recombinant human GM-CSF (P04141 18-144 limits assumed): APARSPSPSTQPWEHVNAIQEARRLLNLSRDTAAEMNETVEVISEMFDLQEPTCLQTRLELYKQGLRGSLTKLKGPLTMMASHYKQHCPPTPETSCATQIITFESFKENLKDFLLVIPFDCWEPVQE

[3] = biological target: T2, E. coli-expressed recombinant det-1 tagged human IL-13 (human, UniProt P35225 35-146); test: competition ELISA: inhibition of det-1 tagged human IL-13 binding to human IL-13Rα2-Fc
T2 construct: also called Det-1 tagged human IL-13 (made in-house); not shown: det-1 tag
T2 sequence (P35225 other isoform, or with tags, fused parts or gaps): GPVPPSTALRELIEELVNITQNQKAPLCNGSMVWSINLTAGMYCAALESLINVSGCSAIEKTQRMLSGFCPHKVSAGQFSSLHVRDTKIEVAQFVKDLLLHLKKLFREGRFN

[4] = biological target: T3, E. coli-expressed recombinant cynomolgus IL-13 (cynomolgus, UniProt Q5I6E4 21-132 (Macaca thibetana entry)); test: cynomolgus IL-13 binding sandwich ELISA
T3 construct: also called cyno IL13 (CA); cIL-13
T3 chain: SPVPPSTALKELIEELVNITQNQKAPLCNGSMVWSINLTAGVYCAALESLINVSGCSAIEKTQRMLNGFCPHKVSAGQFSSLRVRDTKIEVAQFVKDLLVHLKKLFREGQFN

[5] = biological target: T4, E. coli-expressed recombinant human IL-13 (human, UniProt P35225 35-146); test: cell-based or functional assay
T4 sequence (P35225 other isoform, or with tags, fused parts or gaps): as the sequence (P35225 other isoform, or with tags, fused parts or gaps) above

[6] = biological target: E. coli-expressed recombinant Q130 human IL-13 (human, UniProt P35225 35-146, limits assumed); test: cell-based or functional assay
Sequence of E. coli-expressed recombinant Q130 human IL-13 (P35225 35-146 limits assumed): as the sequence (P35225 other isoform, or with tags, fused parts or gaps) above, with R110Q counted along it

[7] = biological target: T3, E. coli-expressed recombinant …; test: cell-based or functional assay
[8] = biological target: mammalian-expressed (CHO cell) human IL-13 (human, UniProt P35225 35-146, limits assumed); test: cell-based or functional assay
Sequence of mammalian-expressed (CHO cell) human IL-13 (P35225 other isoform, or with tags, fused parts or gaps limits assumed): as the sequence (P35225 other isoform, or with tags, fused parts or gaps) above

[9] = biological target: T5, E. coli-expressed recombinant human IL-4 (human, UniProt P05112 25-153); test: human IL-4 binding sandwich ELISA
T5 sequence (looked up): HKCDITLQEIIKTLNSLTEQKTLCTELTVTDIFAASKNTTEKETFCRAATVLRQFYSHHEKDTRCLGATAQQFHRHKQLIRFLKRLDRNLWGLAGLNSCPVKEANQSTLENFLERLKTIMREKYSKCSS

[10] = biological target: T4, E. coli-expressed recombinant human …; test: BIAcore analysis 4, antibody captured on Protein A, IL-13 in solution
Description: (§1) Completed for both human and cynomolgus IL-13 (E. coli-expressed protein). The quoted KD values are the average from 5 different IL-13 concentration curves (done in triplicate).
(§2) The kinetics analysis was performed on a Biacore 3000 machine, using an antibody capture method. Briefly, for the chimeric 6A1 and humanised antibody constructs Protein A capture was used, whilst for the parental murine 6A1 antibody, capture was by a anti-mouse Fc antibody supplied by Biacore. Briefly, the method is as follows, the capture ligand was immobilised to a CM5 Biosensor chip by primary amine coupling in accordance with Biacore standard protocols and using the reagents supplied in Biacores' primary amine coupling kit. The method involves activation CM5 sensor surface by passing a solution of 50 mM N-hydroxy-succinimide (NHS) and 200 mM N-ethyl-N′-dimethylaminopropyl […] (EDC) over the surface. Then, the capture ligand (dissolved in acetate buffer pH5 or pH4.5) was coupled to the activated sensor surface after which any still activated esters were blocked by an injection of 1M ethanolamine hydrochloride, pH8.5.
(§3) The candidate antibody was then passed over the Protein A or anti-mouse Fc antibody surface, depending on whether it was human or mouse in origin and captured. Once a stable binding signal was seen IL13 was passed over the captured antibody surface at various defined concentrations. The subsequent binding curves were analysed with Biacore analysis software BIAeval v4.1 to determine kinetics. The experiments were carried out using Biacore HBS-EP buffer.

[11] = biological target: T3, E. coli-expressed recombinant …; test: as above
Description: as §1, §2, §3

[12] = biological target: T4, E. coli-expressed recombinant human …; test: BIAcore analysis 1, antibody captured, IL-13 in solution
Description: (§4) Completed for both human and cynomolgus IL-13 (E. coli-expressed protein). The quoted KD values are the average from 5 different IL-13 concentration curves (done in triplicate). Note that mass transfer issues were apparent in this analysis and that a modified experimental protocol (to correct for this issue) has been completed in analysis 4 (where no mass transfer issues were present).
as §2, §3

[13] = biological target: T3, E. coli-expressed recombinant …; test: as above
Description: as §4, §2, §3

[14] = biological target: T4, E. coli-expressed recombinant human …; test: human IL-13 binding sandwich ELISA
[15] = biological target: T6, 16mer biotinylated human IL-13 peptide number 24 (human, N-terminal biotin; C-terminal amide); test: BIAcore analysis 3, antibody over biotinylated peptide on SA chip
T6 construct: format Biotin-SGSG-PEPTIDE-amide; also called Peptide 24
T6 peptide: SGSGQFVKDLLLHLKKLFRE
Description: Completed for the 16mer biotinylated human IL-13 peptide number 24 (identified as the linear binding epitope for parental mAb 6A1, see section 6.7). Note that the absolute KD values obtained for binding to peptide ligands are often quite different to those seen for binding to whole protein targets.
The kinetics analysis was performed on a Biacore 3000 machine using direct binding of antibody to immobilised IL-13 peptide. Briefly, IL-13 biotinylated peptide was captured using a Biacore SA (strepavidin) Biosensor chip. The antibodies were then passed over the sensor surface at various concentrations. The subsequent binding curves were analysed with Biacore analysis software BIAeval 4.1 to determine kinetics. The experiment was carried out using Biacore HBS-EP buffer

[16] = biological target: T2, E. coli-expressed recombinant det-1 …; test: competition ELISA: inhibition of det-1 tagged human IL-13 binding to human IL-13Rα1-Fc

T1 sequence (P35225 other isoform, or with tags, fused parts or gaps limits assumed): as the sequence (P35225 other isoform, or with tags, fused parts or gaps) above

B1: chimaeric 6A1 (antibody, human IgG1, V domains shown)
VH: EIQLQQSVAELVRPGASVRLSCTASGFYIKDTYMHWVIQRPEQGLEWIGTIDPANGNTKYVPKFQGKATITADTSSNTAYLRLSSLTSEDTAIYYCARSIYDDYHYDDYYAMDYWGQGTSVTVSS
VL: DVLMTQTPLSLPVSLGDQASISCRSSQNIVHINGNTYLEWYLQKPGQSPKLLIYKISDRFSGVPDRFSGSGSGTDFTLKISRVEAEDLGVYYCFQGSHVPWTFGGGTKLEIK
notes: Parent murine 6A1 V regions on human IgG1/k wild type C regions, expressed in CHO cells; also called 6A1c; 6A1 chimaeric antibody
- Native IL-13 (ng/ml) detected in Th2 supernatant [1]: 19.6 ng/mL
- binding result [2]: no binding
- IC50 [3]: 0.04 µg/mL
- EC50 [4]: 0.018 µg/mL
- Mean ND50 for 2 assays [5]: 0.119 µg/mL
- Mean ND50 for 2 assays [6]: 0.128 µg/mL
- Mean ND50 for 2 assays [7]: 0.059 µg/mL
- Mean ND50 for 2 assays [8]: 0.285 µg/mL
- binding result [9]: no binding
- Kd [10]: 0.038 nM
- koff [10]: 4e-05 s⁻¹
- kon [10]: 1.05e+06 M⁻¹ s⁻¹
- Kd [11]: 0.03 nM
- koff [11]: 2.65e-05 s⁻¹
- kon [11]: 885000 M⁻¹ s⁻¹
- Kd [12]: 0.043 nM
- koff [12]: 2e-05 s⁻¹
- kon [12]: 464000 M⁻¹ s⁻¹
- Kd [13]: 0.055 nM
- koff [13]: 3.27e-05 s⁻¹
- kon [13]: 592000 M⁻¹ s⁻¹
- EC50 [14]: 0.015 µg/mL
- Kd [15]: 3.58 nM
- koff [15]: 0.000919 s⁻¹
- kon [15]: 257000 M⁻¹ s⁻¹
- IC50 [16]: 0.034 µg/mL
